Source: PMC7374468, “Characterization of highly active 2-keto-3-deoxy-L-arabinonate and 2-keto-3-deoxy-D-xylonate dehydratases in terms of the biotransformation of hemicellulose sugars to chemicals” (Applied Microbiology and Biotechnology, 2020)

Assays:
purified protein [1] = substrate: O=C(O)C(=O)C[C@H](O)CO; test: purified protein; assay type: biochemical, Caulobacter vibrioides; details: 2 mM NAD+ for coupling enzyme, 5 mM MgCl2, 50 mM HEPES pH 7.5, 25 °C
[2] = substrate: O=C(O)C(=O)C[C@@H](O)CO; test: purified protein, by the assay type; parameters: coupled assay with PpKGSADH, NADH formation at 340 nm, Michaelis-Menten fit, 25 °C, pH 7.5; details: pH 7.5; 25.0 °C
Procedure: (§1) To determine dehydratase activity, a coupled-assay with PpKGSADH as auxiliary enzyme was used to link the oxidation of KGSA to α-KG using NAD^+, as was described in a previous study (Beer et al. [2017]). The measurement was performed in a 96-well F-bottom plate (Greiner Bio-One, Germany). 20 μL of a diluted enzyme was added to a 96-well plate. A total of 180 μL of reaction solution containing different concentrations of either D-KDP or L-KDP with 0.5 U/mL PpKGSADH, 2 mM NAD^+, 5 mM MgCl2, 50 mM HEPES pH 7.5 (end concentration) were added subsequently. The measurement was performed with a Multiskan spectrophotometer (Thermo Scientific, Germany) by measuring the development of NADH at 340 nm at 25 °C. Enzyme activity (kcat) was defined as the number of NADH molecules formed per molecule of enzyme per second. Measurements were performed in triplicate.

purified protein [3] = substrate: O=C(O)C(=O)C[C@@H](O)CO; test: purified protein; assay type: biochemical, Cupriavidus necator; details: 2 mM NAD+ for coupling enzyme, 5 mM MgCl2, 50 mM HEPES pH 7.5, 25 °C
[4] = substrate: O=C(O)C(=O)C[C@H](O)CO; test: purified protein, by the assay type; parameters: coupled assay with PpKGSADH, NADH formation at 340 nm, Michaelis-Menten fit, 25 °C, pH 7.5; details: pH 7.5; 25.0 °C
Procedure: as §1

purified protein [5] = substrate: O=C(O)C(=O)C[C@H](O)CO; test: purified protein; assay type: biochemical, Cupriavidus necator; details: 2 mM NAD+ for coupling enzyme, 5 mM MgCl2, 50 mM HEPES pH 7.5, 25 °C
purified protein [6] = substrate: O=C(O)C(=O)C[C@H](O)CO; test: purified protein; assay type: biochemical, Pseudomonas putida; details: 2 mM NAD+ for coupling enzyme, 5 mM MgCl2, 50 mM HEPES pH 7.5, 25 °C

B1: CcD-KdpD1 (Caulobacter vibrioides CB15) (protein)
chain: MVCRRLLAWTARAREAEDFALVRQPTCRPHMLALPSADERAPPTVSALQTLEFWGDDAVGVSEFLPEDWKAATLLGRIDFGEGPTPVLVRGGRVEDVSKIAPTVADLMNAFQPGAVIPRGEDKGPLEALDIRPVWEDPDGAAPVKLLAPVDLQCLKAAGVTFAVSTLERVIEERARGDAGEALKIRTLLAERMGGDLKSVEPGSQGAQRLKDALIADGLWSQYLEVAIGPDAEIFTKGPTLSSMGWGDQVGVRYDSHWNNPEPEVVLLCDGSGLIRGAALGNDVNLRDFEGRSALLLSKAKDNNASCAIGPFFRLFDETFGLDDVRSAEVELKITGRDNFVLDGKSNMSLISRDPAVLAGQAYGKQHQYPDGFALFLGTMFAPIQDRDTPGQGFTHKVGDRVRVSTPKLGVLENEVTTCDKAKPWTFGISALIRNLAGRGLL
notes: C-terminal His6 tag (kept), codon-optimised synthetic gene, E. coli BL21(DE3); 58-residue N-terminal extension
Question: How did the Km (purified protein [1]) turn out when B1 was run?
Answer: 0.25 ± 0.01 mM

Question: And the kcat (purified protein [1])?
Answer: 45.6 ± 0.3 s⁻¹

Question: And the kcat/Km (purified protein [1])?
Answer: 185700 ± 200 M⁻¹ s⁻¹

Question: And the Km [2]?
Answer: 2.81 ± 0.12 mM

Question: What about the kcat [2] of the same protein?
Answer: 7.99 ± 0.08 s⁻¹

Question: And the kcat/Km [2]?
Answer: 2840 ± 210 M⁻¹ s⁻¹

B2: CnL-KdpD (Nhis) (Cupriavidus necator H16) (protein)
chain: MTRTPSPTVYRGVFPVAPTVFDAQGGLDLDGQRRCIDFMIDAGSHGICILANFSEQFVLSDDERNVLMKTVLEHVDGRVPVIVTTTHFSSRLCAERSRAAQDAGAAMVMVMPPYHGATIRVPERSIYEFFATVSDAIDIPIMIQDAPVSGTTLSAPFLARMAREIGNVSYFKIEVPQAAAKLRELIELGGDAIVGPWDGEEAITLMADLEAGATGAMTGAGFPDGIRQILDAWQAGDAELAAQRYQQWLPLINYENRQGWLATSKVLMQAGGVIASDAVRHPLQPMHPATREGLLKIARRLDPLVLRWAR
notes: N-terminal His6 tag (kept), pET vector, E. coli BL21(DE3), HisTrap purified; strain given inconsistently (H16 gDNA vs N-1)
Question: B2 was tested. Which Km (purified protein [3]) did it give?
Answer: 0.17 ± 0.00 mM

Question: What about the kcat (purified protein [3]) of the same protein?
Answer: 23.4 ± 0.1 s⁻¹

Question: And the kcat/Km (purified protein [3])?
Answer: 137200 ± 200 M⁻¹ s⁻¹

Question: What about the Km [4] of the same protein?
Answer: 4.08 ± 0.21 mM

Question: What about the kcat [4] of the same protein?
Answer: 12 ± 0.16 s⁻¹

Question: What about the kcat/Km [4] of the same protein?
Answer: 2950 ± 230 M⁻¹ s⁻¹

B3: CnL-KdpD (Chis) (Cupriavidus necator H16) (protein)
chain: MTRTPSPTVYRGVFPVAPTVFDAQGGLDLDGQRRCIDFMIDAGSHGICILANFSEQFVLSDDERNVLMKTVLEHVDGRVPVIVTTTHFSSRLCAERSRAAQDAGAAMVMVMPPYHGATIRVPERSIYEFFATVSDAIDIPIMIQDAPVSGTTLSAPFLARMAREIGNVSYFKIEVPQAAAKLRELIELGGDAIVGPWDGEEAITLMADLEAGATGAMTGAGFPDGIRQILDAWQAGDAELAAQRYQQWLPLINYENRQGWLATSKVLMQAGGVIASDAVRHPLQPMHPATREGLLKIARRLDPLVLRWAR
notes: C-terminal His6 tag (kept), pET vector, E. coli BL21(DE3), HisTrap purified; strain given inconsistently (H16 gDNA vs N-1)
Question: With B3 as the protein, how does the Km (purified protein [3]) read?
Answer: 0.16 ± 0.01 mM

Question: And the kcat (purified protein [3])?
Answer: 22.5 ± 0.2 s⁻¹

Question: What about the kcat/Km (purified protein [3]) of the same protein?
Answer: 137500 ± 200 M⁻¹ s⁻¹

Question: And the Km [4]?
Answer: 6.40 ± 0.17 mM

Question: What about the kcat [4] of the same protein?
Answer: 11.01 ± 0.08 s⁻¹

Question: What about the kcat/Km [4] of the same protein?
Answer: 1720 ± 160 M⁻¹ s⁻¹

B4: CnD-KdpD (Cupriavidus necator H16) (protein)
chain: MALPLTLSATQTLPADGLAGTLVGRAWIPASDGAPAGPAVVVLRPAGVFDISDVAPTMSTLLEQGDPVTVVHNTPGRWIGKLDDLLANTADPRGSDSVARLLAPCDLQVIKAAGVTFAGSLVERVIEEQTKGDPQGAAEVRNRIQALVGERLSRIRPGSREAGELKALLIEHGMWSQYLEVGIGPDAEIFTKAPLLSALGTGTEIGLHPGSAWNNPEPEIVLAINSRGDVLGATLGNDVNLRDFEGRSALLLGKAKDNNGSCAIGPFLRLFDQSLSLDDVRRATVDLRVDGLDGFVLSGTSSMDQITRDPLELAEQVMGATHQYPDGAMLFLGTLFAPVEDRDTAGGGFTHKDGDLVTISSRQLGSLVNRVGRSDRIAPWTFGVRALMANLAARGHTTF
notes: as for B3
Question: B4 was tested. Which Km (purified protein [5]) did it give?
Answer: 0.23 ± 0.02 mM

Question: And the kcat (purified protein [5])?
Answer: 13.8 ± 0.2 s⁻¹

Question: What about the kcat/Km (purified protein [5]) of the same protein?
Answer: 58900 ± 400 M⁻¹ s⁻¹

Question: What about the Km [2] of the same protein?
Answer: 2.49 ± 0.20 mM

Question: And the kcat [2]?
Answer: 4.24 ± 0.07 s⁻¹

Question: What about the kcat/Km [2] of the same protein?
Answer: 1700 ± 280 M⁻¹ s⁻¹

B5: PpD-KdpD (Pseudomonas putida KT2440) (protein)
chain: MTDRTNANQPLPLSHDASVFDRGSWVGRVWLPEQGPAVVLVKAGAVYDISTHVATVSALLEVDDPVAYLRALPLAEPLIALPALLGNSDPTRRTPHQPWLLAPIDLQAVKAAGVTFATSLLERVVEEQAKGDPAKADAIRDTLASRIGADLSQIVPGSAQAEALRKVLVEQGLWSQYLEVGIGPDAEVFTKAQPLSAVGHGADIGIHPKSSWNNPEPEVVLAVSSNGSIKGAMLGNDVNLRDFEGRSALLLSKAKDNNASTALGPLLRLFDESFGLDDVRAAEVDLRVEGEDGFILSGRSSMRQISRDPQDLVQQTLNENHQYPDGLVLFLGTLFAPKQDRDQPGNGFTHKPGDVVSISNPQLGTLCNRVTTSDLAPQWDFGLRALIDNLGRRGLLEVAATARPL
notes: C-terminal His6 tag (kept), pET vector, E. coli BL21(DE3), HisTrap purified
Question: With B5 as the protein, how does the Km (purified protein [6]) read?
Answer: 0.35 ± 0.01 mM

Question: What about the kcat (purified protein [6]) of the same protein?
Answer: 75.9 ± 0.6 s⁻¹

Question: And the kcat/Km (purified protein [6])?
Answer: 219900 ± 200 M⁻¹ s⁻¹

Question: What about the Km [2] of the same protein?
Answer: 6.12 ± 0.21 mM

Question: And the kcat [2]?
Answer: 19.64 ± 0.17 s⁻¹

Question: What about the kcat/Km [2] of the same protein?
Answer: 3210 ± 190 M⁻¹ s⁻¹
